# In PMC8136818:
# System: SmpO45 (Staphylococcus aureus plasmid pWBG745)
# Assay: SPR
# Details: SPR: 10 mM HEPES, 150-300 mM NaCl, 3 mM EDTA, 0.05% Tween 20, 1 uM protein (pH, temperature not given); EMSA: Li-Cor binding buffer, 0.5 ug/ul herring sperm …
row,Sequence,binding signal [% Rmax]
1,CCCCATAAAATATGGGGTCATATTTCCCTT / AAGGGAAATATGACCCCATATTTTATGGGGCCTACCCTACGTCCTCCTGC [OT45.10],30
2,GACACTATAGTTTATTGTGGGGTCACTTTA / TAAAGTGACCCCACAATAAACTATAGTGTCCCTACCCTACGTCCTCCTGC [OT45.3],30
3,TTTATTGTGGGGTCACTTTAAATTCTTTAA / TTAAAGAATTTAAAGTGACCCCACAATAAACCTACCCTACGTCCTCCTGC [OT45.4],30
